Measured values published in patent US20210244739A1.

Molecular target: human protein kinase R (PKR) (human) (UniProt P19525)
Experiment: cell-based or functional assay

Chain of UniProt P19525 (P19525 2-551 limits assumed): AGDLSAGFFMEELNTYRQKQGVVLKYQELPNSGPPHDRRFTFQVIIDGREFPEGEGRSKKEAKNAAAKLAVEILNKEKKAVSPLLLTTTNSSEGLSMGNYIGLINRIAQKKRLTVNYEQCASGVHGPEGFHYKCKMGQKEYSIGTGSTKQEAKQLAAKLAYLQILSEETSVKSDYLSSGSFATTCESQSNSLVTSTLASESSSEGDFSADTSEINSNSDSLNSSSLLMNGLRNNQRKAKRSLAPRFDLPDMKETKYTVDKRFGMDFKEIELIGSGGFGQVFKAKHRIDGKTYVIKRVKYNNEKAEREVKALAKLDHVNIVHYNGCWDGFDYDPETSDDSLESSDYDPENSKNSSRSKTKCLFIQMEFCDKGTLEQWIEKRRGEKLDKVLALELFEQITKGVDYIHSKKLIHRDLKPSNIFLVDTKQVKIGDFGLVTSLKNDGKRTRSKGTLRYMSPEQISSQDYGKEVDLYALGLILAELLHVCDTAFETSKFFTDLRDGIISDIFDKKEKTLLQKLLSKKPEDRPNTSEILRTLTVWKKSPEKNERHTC

Row | Substance | virus titre increase between 5 hpi and 48 hpi in HeLa cells
1 | taterapox virus 037 (K3 ortholog) | > 10 fold
2 | sheeppox virus 011 (K3 ortholog) | > 10 fold
